Reference: the DeepSol protein solubility set

assay: soluble on expression in E. coli; label from the status in PepcDB or PDB records

Sequence	soluble on expression in E. coli
MGSDKIHHHHHHMTKHPLKSLAASVRAAIADPARTTFVGSDANPRFELFHAASSLCSQKVRTVLFEKQLPYRSNDMKILSSMGPDGVVPAEHYHAPYVGLRLIAGEEIGREFVSGYSGRTSVQTEGFDPCVVPLLVDYEASRVIADSRRICCYLDAVSRNPVQLVPEDADARALVMQQVDIVDRIPNGTLLYGFHPDADLRPEALRTVMESVYDYKVAALKAMIDANADNAELVSAYRAKIAKEQGGKSVRHDAALQRAARDHVAVLLADLDRLLGTSSPYLLGPHFSLGDVLWGVNLTRLAYLGLASMWKDRPNVIRYVNALLTRPSLRKEAVRATMDSMPPSRYFDVVSGTAEVASM	not soluble
MNKSRVVVGMSGGVDSSVAALLLKQQGYDVTGLFMKNWEEDDTDEYCSSRQDFLDAASVADILDIPLEVVNFSTEYRERVFNLFLKEYQAGRTPNPDVLCNSEIKFRAFLDHALNLGADWIATGHYAQVHETDGLFQLLKGEDGNKDQSYFLYRLNQQQLSHTIFPIGHLYKREVRKIAREHRLPNSTKKDSTGICFIGERPFREFLNRYLPANPGEIHTLDDQVVGEHLGVMYYTIGQRQGLGIGGTRQGSEQPWFVSGKDIKKNVLYVVQGHDHPALLRSSLTAADLSWISGTPPHQNWVYAAKIRYRQTDAPCAITHFEHDSCQIGFAAPQWGITPGQSVVVYESKVCLGGGVIIGSNDLEHHHHHH	not soluble
FRYDNTTPKTLRHVALLLEQGIETNDFYSGLHRRELKQTRLEGYILQHFSIIDGCVGVMKLTSELLAEYDVTANESAAFVNSFSDVE	soluble
MAQQGVFTLPANTSFGVTAFANAANTQTIQVLVDNVVKATFTGSGTSDKLLGSQVLNSGSGAIKIQVSVNGKPSDLVSNQTILANKLNFAMVGSEDGTDNDYNDGIAVLNWPLG	soluble
MGSDKIHHHHHHMRKIPPLRALQVFEAAARLQHFSRAAQELCITQSAVSHQVRLLEEHFALPLFRREGRSLRLTDKGEQLFQETARIFNELGELNLRLLGEKPEALRLAVYSSFAVKWLIPRLSGFRRLHPGIQVRLDMITEDPVLSHSSADMFITGQQDQKGYWQQLLHAERLIPVCSPELISSSDKLDLDWLSTQQLLTVDEGPLGLDWQRWFEHHRVAQPEEEQQQLFSHVLMAIEAAIAGQGVALASDFMVLDDIAKQRLVALPFAGIDTGFEFNFLCKQRRLQEPAIAAFVHWLTQQH	not soluble
MFGIDGLEFLVILLVLIVVVGPKDLPKMLKTMARAIAYVRSTANEFRHQFDDAIKQAELDDLQKTLSDMNDFNPDKKLTGILNPMQDIRGDILNNFDVNTTHHKLEKDQENFECNENKTNEDLDVPVDAHSSGSVFVTSKDKESAS	not soluble
SFVKDFKPQALGDTNLFKPIKIGNNELLHRAVIPPLTRMRALHPGNIPNRDWAVEYYTQRAQRPGTMIITEGAFISPQAGGYDNAPGVWSEEQMVEWTKIFNAIHEKKSFVWVQLWVLGWAAFPDNLARDGLRYDSASDNVFMDAEQEAKAKKANNPQHSLTKDEIKQYIKEYVQAAKNSIAAGADGVEINSANGYLLNQFLDPHSNTRTDEYGGSIENRARFTLEVVDALVEAIGHEKVGLRLSPYGVFNSMSGGAETGIVAQYAYVAGELEKRAKAGKRLAFVHLVEPRVTNPFLTEGEGEYEGGSNDFVYSIWKGPVIRAGNFALHPEVVREEVKDKRTLIGYGRFFISNPDLVDRLEKGLPLNKYDRDTFYQMSAHGYIDYPTYEEALKLGWDKS	soluble
MGSDKIHHHHHHAVDAKLLEMLRANGSINQAQYNELQGDLAKETKEKADQKAQSERMSSFEQKVAWAAKTQIKGDVRLRYEDVNVDDPNSSSGNQDRQRVRARVGFYSEINPQVDAGVRIATGSSADRRSTNQSFDNYFDKKSLWVDLAYLDWHPTAVPNLHLIGGKMQQPWVSMGDIIWDSDINPEGVAATYKADLGGAEVFASAGQYTLKDNVDGDGVQYKHDAQVYHGQLGAKFAPADVLKLTVGASIYGYDNDKEAAILQSFGNTTNEFNLVEGFGQIDFTGLAIPLSAYGQYVKNTDSTDGEDQAWLAGLKTKMGAWSLDYNYRDVQRNAVVSLFTDSDFGNGYTGSRGHKFKVGYEIDKNFSLGAAYLMAKTDLSQLPNSNADVDTLQVDLEAKF	not soluble
MGSDKIHHHHHHKRQVSGDEAYLQASPLSELHAPAGMILPIQVGDYNIPVANSTGAVGKALDIRPPAQPLALVSGARTQFNGDTATLMVENGRSGSLWAQVTSILQAKNYVIAKRDDASQTLNTDWVEWNRLDEDQQYRGRYQISVKPQGYQQAVVVKLVNLEQAGKPVADPASLQRYSTAMLNVISEGLDMNATSAQNAAQRSAGATFDVQSAADDTGLPMLVVRAPFNLVWQRLPGALEKVGMKVTDSTRSQGSMALTYKPLSDSSWQELGARDPQLVSGDYKLQVGDLDNRSSLQFIDPKGHTLTQSQNDALVAVFQAAFNK	not soluble
MAIRLPAEWEEQDGVLIAWPHPGSDWYPWLRLVEPVFAQIVREITRFETALVVAADGERTAALLEAVGARMERVAIVELPTNDTWARDFGPVTVERDGRPVLLDFGFNGWGLKFAADRDNLVTRRLRHLGIFGDIPAEMVGLVLEGGSIESDGRGTVLTTAECLLNPNRNPHLSRAEIEEALARYLGTERVLWLENGFLAGDDTDSHVDTLARLAPDDTIVYVRCDDATDEHYAALFMMEKELANLRTREGSPYRLIPLPWPRACFDHEGQRLPATYANFLVINGAVLVPVYDDPADEAALEAIGRAFPGREIVGIDCRPLIIQHGSLHCVTMQLPKGVLPCPNLEHHHHHH	soluble
SELPRKANRRNSSCSSISSVSESSSPSALDESTLTKILPTDNFRGGRGFASPSPPTSLLSEPLSRMDVLSEKIWDYHNKVSQTDEMLQRKLHLRDMLYTAISPVFPLSGLYVVGSSLNGFGNNSSDMDLCLMITNKDLDQKNDAVVVLNLILSTLQYEKFVESQKLILAKVPILRINFAAPFDDITVDLNANNSVAIRNTHLLCYYSSYDWRVRPLVSVVKEWAKRKGINDANKSSFTSYSLVLMVIHFLQCGPTKVLPNLQQSYPNRFSNKVDVRTLNVTMALEEVADDIDQSLSEKTTLGELLIGFLDYYANEFNYDRDAISIRQGRRVERAALAVRPKIHSNSEGDKETPPPSSSASTSSIHNGGTPGIPMHHSISNPHFWRSQWRCVCIEEPFTNSNTAHSIYDEMVFEAIKKAFREAHGELQHNHDLDKLMECEPIKASTTNTGAAVFAATYEGERPLAQQPNTIACASLRVLNSIPVSSGPGHYHYQQQSNQNLSRPQRPGSNQGYQMNNNRGFNGNNQQQHQNRRSFNNQSSSNPGNGSTGPRSSRSNENVRDSSRQQNSQKGSSGVSVSKENVASTTGVPVDKKQQNSNRKDDGNRTKRSPMVQSPEPAKTKSEKTPMASSNVSQ	soluble
MLKSVQGLWKDFFGIRDDGRKREYGSLDEVRKRSALRSRRKQMRPTGKSVLKRPRKVTDRKTEEKIRTNRRKTPKRRLTKIFQTIRDVFSNDNENMSKMQNVCGDMTRILKKRSQGRPSYMDTDTAKSRILRSDAFKRKISELKYNKQRISELRSGSSDGSSGKDRNQSLYLDREILLQRQIKKRDEKIKALESKLQSLQEALNYSNEKYRILEDLLDSSNIHPSYTKSRRTMSNLARENDEIKPLKIDLSPSPIRRTNSLFTSSPMKTYNRDGNIPEMQPLQENISPACPTPPYRSRETEKEDETLSPISVDFSSYLS	soluble
MAGDPMTFLIIRQTHENVLSKETVVKKVEASYEGKVTKATQSKDKKTYDITLENPKGTYFVKADAISADILSMNRVKAVNPSAMTEKEAEHLALERVPGTVKKQTRQSQVATYTIQKEDGKTYEVKVDMQAKTVLSADQISSKDQQKTPITKKEAKTIAERKTGGTADDADLEESEGTLIFEVDVDLPDNKEATVKINAYTGKVANIVYEDLEHHHHHH	not soluble
PSTLELLKDVHLGLPVPCHDPARLALLSGHYLYYHYGCDGLDDRGWGCGYRTLQTLCSWPGGQSSGVPGLPALQGALEAMGDKPPGFRGSRNWIGCVEASLCLEHFGGPQGRLCHLPRGVGLRGEEERLYSHFTTGGGPVMVGGDADAQSKALLGICEGPGSEVYVLILDPHYWGTPKNRCELQAAGWVGWQKVKSVFDSNSFYNLCFTRLEHHHHHH	soluble
MEDIKSLLLQCPVLAGLPVEGINEAVQIVRARHFDEKALICSKGAQHSSLMVIAKGSVRVNSISSKGKEVTLMIFETGGWFGDNVFSPGMPRIFGATAHTDVTLLELPGDKFRQLLAKYPQSYPVILDLLSRRLWSAISVIEDDAIRGIEERIGRRLLLLAEYQHNRPISAQSCVVKVTREHIANMMGLTRQSVHKVLKKLENSNVLRLQYGSITILNPLKMEAYLKQLE	not soluble
FKYIQKIAKTEIKREEVPDVKDIISAKKIKIISGIKEVLESGKYADCEKMASDLLEDADPQEVLSAVLKYALKDELS	not soluble
AIASYCRQEGKDKIIFVTKEDHETPSSAELIADDPNDPFEEQGLILPNGDINWNCPCLGGMASGPCGEQFKSAFSCFHYSQEEIKGSDCLDQFRAMQECMQKYPELYPQEDDEDELEKEKQNKDEESSVTQSSDTKEESSS	soluble
AAEKTGKCRVVTTTGTADWSVRESFNNYLEGPIANGAAYKYHGGIEVRDGVETTGTKSAREFTWPVLGSEEGAVKLGGGVHWTGHNHYSGDDESQAPDNFILDLDFSNPTVKFDGNEGTLLVDFKSREFVDTKTVADFLTGTQAELATITFDEPIDLTQENVTVTGQTKLTATGVDVMGTFYPEGEALAPITLNLTN	not soluble
MMNQDIEKVLISEEQIQEKVLELGAIIAEDYKNTVPLAIGVLKGAMPFMADLLKRTDTYLEMDFMAVSSYGHSTVSTGEVKILKDLDTSVEGRDILIVEDIIDSGLTLSYLVDLFKYRKAKSVKIVTLLDKPTGRKVDLKADYVGFTVPHEFVVGYGLDYKEQYRNLPYVGVLKPSVYSN	not soluble
MPLDPICKKIISRDTEYFSDYGGKNYYFCSSECKHKFDALEKSVIRLKRNLSEKEKISFGKLKRDIIKPGICTLCGACAASCEYITIKDEKPELIGPCKACGVCYYQCPRTITTEEGLIGSFRYAYAAQSAIPEIKGQDGGVVTSLLLYALDEGLIDCAVVTVHSEEEPWKPVPIVAKTREEILKSSGSIYSHSMTLEALMSAVKQGMNSVAFVGTSCNIDAVTKMQKSSYGFLHLFMRAKVLKLGLFCMDTFAYEGIKAVLESYGITLDNVDAMKIRKGKFEVALKDGKEHIFELSEFDEYRSSSCRFCTDLTAENSDISFGGVGSPRGYTTVLARSAIGYEIFNEAIDNGYIEARQLTDDELEKVLNLAKMKKVQMYDLHRRQKTLEHHHHHH	not soluble
MTGPTTDADAAVPRRVLIAEDEALIRMDLAEMLREEGYEIVGEAGDGQEAVELAELHKPDLVIMDVKMPRRDGIDAASEIASKRIAPIVVLTAFSQRDLVERARDAGAMAYLVKPFSISDLIPAIELAVSRFREITALEGEVATLSERLETRKLVERAKGLLQTKHGMTEPDAFKWIQRAAMDRRTTMKRVAEVVLETLGTPKDT	soluble
MNNSSFFGNRLKEERKKLKMTQAEIAEKCGVSGRMWGDYERGISQPKAELFFQFEKVGIDVQYVMHGRRGETAVMPSETLNAEEQELLVLFREAAAADREMILMVARRAEKKAQTALGKVSNG	not soluble
MAHHHHHHMRLIESRQMHEWDNAADSSLDVDHPEDAPFGQGPERQQQRDGKSNLGDQSDYGEEARTEATWLWRFGFPRTEDEKAYVASHLWSKGLRRRVAQLTDVRRRGRPGEFVIGVPEGLQHLREQRERLERERFGGVKVFPPQNA	not soluble
